Laboratory results from article PMC10689251.

Biological target: RuBisCO large subunit CbbL (Cyanobium sp. PCC 7001)
Test: cryo-EM structure; single-particle analysis of RuBisCO particles spilled from broken native α-carboxysomes of Cyanobium sp. PCC 7001 (sample ~1 mg/mL in TEMB buffer, graphene oxide coated grids); refined with D4 symmetry (2.87 Å) and without symmetry (3.79 Å); density for RuBP and magnesium in the active site

Question: How did the stoichiometry N turn out when “RuBisCO large subunit CbbL (natural protein)” was run?
Answer: 8
